{"source": "patent US20230028090", "about": "“Method Of Using Aptamer For Detecting Glycated Hemoglobin In Whole Blood And Nanoelectronic Aptasensor” (National Taiwan University, published 2023)", "molecular_target": "Glycated hemoglobin HbA1c (Homo sapiens, UniProt P69905;P68871 P69905:2-142,P68871:2-147)", "sequence (P69905 2-142, chain 1 of 2)": "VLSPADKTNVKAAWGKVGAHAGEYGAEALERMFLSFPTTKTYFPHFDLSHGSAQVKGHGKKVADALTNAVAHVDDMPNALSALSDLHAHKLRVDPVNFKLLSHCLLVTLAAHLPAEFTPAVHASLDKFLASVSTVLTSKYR", "sequence (P68871 2-147, chain 2 of 2)": "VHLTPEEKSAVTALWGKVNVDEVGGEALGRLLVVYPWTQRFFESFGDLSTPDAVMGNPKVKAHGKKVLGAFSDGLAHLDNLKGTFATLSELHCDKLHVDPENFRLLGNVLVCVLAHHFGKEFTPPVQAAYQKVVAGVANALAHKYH", "experiment": "detection range by PEG:AptGP silicon nanowire FET in 1x PBS; hemolytic blood also detected, serum control response <10%", "settings": "also hemolytic whole blood samples; chain copies: 2", "method": "Prior to the surface modification, an SiNW-FET was washed with ethanol and cleaned with oxygen plasma (25 W, 50 sccm, 60 s). The SiNW-FET device was then incubated for 15 min in an ethanol solution (1% v/v) containing an optimal ratio of MPTMS, PTMS, and PEG-silane, of which the ethanol solution was also mixed with 16.7 mM DTT to reduce the possible disulfide linkages among the thiol groups of MPTMS. Next, this silane-based SAM-modified device was rinsed with ethanol, dried under N₂, and heated at 100° C. for 15 min. Finally, the silane-based SAM-modified device was incubated in 1×PBS containing 1 μM AptGP and 16.7 mM DTT for 1 hr, where AptGP (with the 5′-SH) was immobilized to MPTMS via a disulfide bond to form a PEG:AptGP/SiNW-FET aptasensor.\nWe show a representative example of measuring HbA1c in the blood sample of Subject 1 by PEG:AptGP/SiNW-FET. Before detecting HbA1c in a lysed-blood sample, a PEG:AptGP/SiNW-FET aptasensor was calibrated by recording the transfer curves corresponding to various concentrations of HbA1c (CHbA1c=0-1.2 μM in 1×PBS), as shown in FIG. 14. […] By comparison, we also detected HbA1c in serum as a control test (with the transfer curves measured in the lower panel of FIG. 16 and the corresponding electrical responses presented in FIG. 17), where the serum was isolated from the tested blood sample by centrifugation."}
{"binder": "GGTGAGTTAAGGAATCAGCGGCTCAGACGACCCGACGCAC (ssDNA, end-modified for disulfide conjugation to MPTMS on silicon nanowire)", "note": "[AptGP (Aptamer A)]", "values": [{"measurement": "binding result", "result": "binds"}]}
